Measurements: US20070036811A1 (KRAEFTENS BEKAEMPELSE, published 2007)

B1: ML-IAP280 (QLCPICRAPV) (peptide)
peptide: QLCPICRAPV
notes: Synthetic peptide bought from Research Genetics, >80% purity
B2: ML-IAP154 (LLRSKGRDFV) (peptide)
peptide: LLRSKGRDFV
notes: as for B1
B3: ML-IAP83 (GMGSEELRL) (peptide)
peptide: GMGSEELRL
notes: as for B1
B4: ML-IAP90 (RLASFYDWPL) (peptide)
peptide: RLASFYDWPL
notes: as for B1
B5: ML-IAP34 (SLGSPVLGL) (peptide)
peptide: SLGSPVLGL
notes: as for B1
B6: ML-IAP245 (RLQEERTCKV) (peptide)
peptide: RLQEERTCKV
notes: as for B1
B7: ML-IAP99 (LTAEVPPEL) (peptide)
peptide: LTAEVPPEL
notes: as for B1
B8: ML-IAP98 (PLTAEVPPEL) (peptide)
peptide: PLTAEVPPEL
notes: as for B1
B9: ML-IAP230 (VLEPPGARDV) (peptide)
peptide: VLEPPGARDV
notes: as for B1
B10: ML-IAP54 (QILGQLRPL) (peptide)
peptide: QILGQLRPL
notes: as for B1

What follows are binders tested against HLA-A2 (human) (assay: assembly assay, T2 cells, [35S]-labelled class I MHC, immunoprecipitation and IEF).

C50 (peptide concentration for half maximal binding) | Binder
20 µM | B1
10 µM | B2
30 µM | B3
0.2 µM | B4
1 µM | B5
1 µM | B6
0.9 µM | B7
> 100 µM | B8
> 100 µM | B9
1 µM | B10
